Results published in PMC3655264, “A Large-Scale Conformational Change Couples Membrane Recruitment to Cargo Binding in the AP2 Clathrin Adaptor Complex” (Cell, 2010).
Values belong to the substance of their own block, whether it stands above or below them.

How the values were obtained:
[1] = target: fluorescein-labeled TGN38 YxxΦ peptide (ASDYQRL); test: fluorescence polarisation; equilibrium anisotropy titration with 500 μM polymeric heparin (~50 subunits); 20 nM fluorescein peptide; 21°C; 10 mM Tris pH 8.7, 250 mM NaCl
[2] = target: fluorescein-labeled TGN38 YxxΦ peptide (ASDYQRL); test: fluorescence polarisation; stopped-flow polarized fluorescence, pre-steady-state kinetics; AP2 preincubated for 30 min with 200 μM heparin; 1 μM fluorescein peptide
[3] = target: fluorescein-labeled TGN38 YxxΦ peptide (ASDYQRL); test: fluorescence polarisation; stopped-flow polarized fluorescence, pre-steady-state kinetics, without heparin; 1 μM fluorescein peptide, protein at pseudo-first order excess; single exponential fits, kapp = koff + kon.C
[4] = target: lipid-linked TGN38 sorting motif peptide (…) displayed in liposomes; test: SPR; settings: for Kd: 10% PtdIns4,5P2 + 1% TGN38 liposomes, five AP2 concentrations ranging from 50 nM to 1 μM
[5] = target: liposomes displaying both TGN38 YxxΦ peptide (m4) and CD4 dileucine peptide (m5); test: SPR; settings: 10% PtdIns4,5P2 + 0.5% TGN38 + 0.5% CD4 liposomes; five AP2 concentrations ranging from 50 nM to 1 μM
[6] = target: lipid-linked phosphorylated CD4 dileucine sorting signal peptide (…(SP)…) displayed in liposomes; test: SPR; settings: for Kd: 10% PtdIns4,5P2 + 1% CD4P liposomes, five AP2 concentrations ranging from 50 nM to 1 μM
[7] = target: liposomes containing 10% PtdIns4,5P2 (no cargo peptide); test: SPR; settings: 10% PtdIns4,5P2 liposomes; five AP2 concentrations ranging from 50 nM to 1 μM
[8] = target: lipid-linked TGN38 sorting motif peptide (…) displayed in liposomes; test: not stated; unpublished data (S.H.); binding of AP2 cores to YxxΦ/PtdIns4,5P2-containing liposomes
[9] = target: lipid-linked TGN38 sorting motif peptide (…) displayed in liposomes; test: SPR; peptido-liposomes with 10% PtdIns4,5P2 and lipid-linked peptide captured on an L1 sensor surface (BIAcore 3000, T100); AP2 cores injected; 10 mM Tris pH 8.7, 250 mM NaCl, 1 mM DTT; corrected for binding to PC/PE or PtdIns4,5P2 liposomes; apparent
[10] = target: lipid-linked phosphorylated CD4 dileucine sorting signal peptide (…(SP)…) displayed in liposomes; test: as above
Target sequence in this assay (peptide, as listed by the source): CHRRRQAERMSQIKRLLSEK

Chain of AP2 core (recombinant; α trunk, β2 trunk, myc-tagged μ2, σ2) (from UniProt P63010;P84092;P62743) αPIP- (substitutions in the PtdIns4,5P2-binding site of α; not printed) (P62743 whole entry, looked up, stated change not applied): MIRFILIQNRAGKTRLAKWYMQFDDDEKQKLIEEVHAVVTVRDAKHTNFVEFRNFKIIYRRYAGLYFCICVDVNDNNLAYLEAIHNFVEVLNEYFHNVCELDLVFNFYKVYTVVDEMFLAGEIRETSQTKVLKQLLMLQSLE
Chain of AP2 core (recombinant; α trunk, β2 trunk, myc-tagged μ2, σ2) (from UniProt P63010;P84092;P62743) αPIP- (substitutions in the PtdIns4,5P2-binding site of α; not printed) (P84092 whole entry, looked up, stated change not applied): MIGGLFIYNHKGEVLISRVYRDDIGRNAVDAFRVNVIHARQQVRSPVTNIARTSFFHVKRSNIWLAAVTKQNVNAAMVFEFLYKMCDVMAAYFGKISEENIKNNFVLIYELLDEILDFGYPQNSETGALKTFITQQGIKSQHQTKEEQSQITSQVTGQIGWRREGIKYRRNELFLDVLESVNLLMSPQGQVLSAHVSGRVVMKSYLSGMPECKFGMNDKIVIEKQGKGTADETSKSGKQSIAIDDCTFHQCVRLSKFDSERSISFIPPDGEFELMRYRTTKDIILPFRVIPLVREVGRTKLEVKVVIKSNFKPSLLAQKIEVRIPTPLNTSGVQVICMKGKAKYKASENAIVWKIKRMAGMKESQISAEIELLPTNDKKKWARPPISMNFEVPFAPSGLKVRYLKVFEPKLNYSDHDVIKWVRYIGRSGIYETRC
Chain of AP2 core (recombinant; α trunk, β2 trunk, myc-tagged μ2, σ2) (from UniProt P63010;P84092;P62743) αPIP- (substitutions in the PtdIns4,5P2-binding site of α; not printed) (P63010 whole entry, looked up, stated change not applied): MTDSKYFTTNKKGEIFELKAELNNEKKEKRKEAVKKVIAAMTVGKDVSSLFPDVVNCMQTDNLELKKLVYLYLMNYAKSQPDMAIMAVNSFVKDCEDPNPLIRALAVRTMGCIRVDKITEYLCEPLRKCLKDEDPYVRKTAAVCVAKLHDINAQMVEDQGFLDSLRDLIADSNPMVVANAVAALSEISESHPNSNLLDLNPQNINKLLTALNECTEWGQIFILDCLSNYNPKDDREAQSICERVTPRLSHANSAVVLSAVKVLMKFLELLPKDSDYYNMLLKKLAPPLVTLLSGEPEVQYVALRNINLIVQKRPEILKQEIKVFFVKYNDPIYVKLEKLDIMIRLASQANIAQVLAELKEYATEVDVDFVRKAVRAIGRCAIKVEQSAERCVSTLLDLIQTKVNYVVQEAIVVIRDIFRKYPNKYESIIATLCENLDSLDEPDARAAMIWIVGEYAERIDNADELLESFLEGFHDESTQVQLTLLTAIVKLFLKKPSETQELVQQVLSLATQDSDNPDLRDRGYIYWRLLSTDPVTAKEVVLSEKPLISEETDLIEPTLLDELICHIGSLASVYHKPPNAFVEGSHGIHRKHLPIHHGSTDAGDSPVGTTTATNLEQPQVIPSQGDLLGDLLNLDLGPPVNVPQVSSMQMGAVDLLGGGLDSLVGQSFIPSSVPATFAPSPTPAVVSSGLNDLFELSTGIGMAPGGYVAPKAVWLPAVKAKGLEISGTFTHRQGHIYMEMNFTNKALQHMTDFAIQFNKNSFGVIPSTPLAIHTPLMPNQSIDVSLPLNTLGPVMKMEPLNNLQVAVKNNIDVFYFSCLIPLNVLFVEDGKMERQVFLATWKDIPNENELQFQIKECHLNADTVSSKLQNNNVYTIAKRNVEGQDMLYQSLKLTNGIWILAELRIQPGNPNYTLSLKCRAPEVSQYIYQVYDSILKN
Chain of AP2 core (recombinant; α trunk, β2 trunk, myc-tagged μ2, σ2) (from UniProt P63010;P84092;P62743) μ2PIP- (μ2 5K>E and μ2 KRR>E combined; individual residues not printed) (P62743 whole entry, looked up, change not shown): as the sequence (P62743 whole entry, looked up, stated change not applied) above
Chain of AP2 core (recombinant; α trunk, β2 trunk, myc-tagged μ2, σ2) (from UniProt P63010;P84092;P62743) μ2PIP- (μ2 5K>E and μ2 KRR>E combined; individual residues not printed) (P84092 whole entry, looked up, change not shown): as the sequence (P84092 whole entry, looked up, stated change not applied) above
Chain of AP2 core (recombinant; α trunk, β2 trunk, myc-tagged μ2, σ2) (from UniProt P63010;P84092;P62743) μ2PIP- (μ2 5K>E and μ2 KRR>E combined; individual residues not printed) (P63010 whole entry, looked up, change not shown): as the sequence (P63010 whole entry, looked up, stated change not applied) above
Chain of μ2^PIP-Core (AP2 core with the μ2 mutations 5K>E and KRR>E combined) (P62743 whole entry, looked up, change not shown): as the sequence (P62743 whole entry, looked up, stated change not applied) above
Chain of μ2^PIP-Core (AP2 core with the μ2 mutations 5K>E and KRR>E combined) (P84092 whole entry, looked up, change not shown): as the sequence (P84092 whole entry, looked up, stated change not applied) above
Chain of μ2^PIP-Core (AP2 core with the μ2 mutations 5K>E and KRR>E combined) (P63010 whole entry, looked up, change not shown): as the sequence (P63010 whole entry, looked up, stated change not applied) above
Chain of AP2 core (recombinant; α trunk, β2 trunk, myc-tagged μ2, σ2) (from UniProt P63010;P84092;P62743) β2:K5E; β2:K12E; β2:K26E; β2:K27E; β2:K29E; β2:K36E (P62743 whole entry, looked up, stated change not applied): as the sequence (P62743 whole entry, looked up, stated change not applied) above
Chain of AP2 core (recombinant; α trunk, β2 trunk, myc-tagged μ2, σ2) (from UniProt P63010;P84092;P62743) β2:K5E; β2:K12E; β2:K26E; β2:K27E; β2:K29E; β2:K36E (P84092 whole entry, looked up, stated change not applied): as the sequence (P84092 whole entry, looked up, stated change not applied) above
Chain of AP2 core (recombinant; α trunk, β2 trunk, myc-tagged μ2, σ2) (from UniProt P63010;P84092;P62743) β2:K5E; β2:K12E; β2:K26E; β2:K27E; β2:K29E; β2:K36E (P63010 whole entry, looked up, stated change not applied): as the sequence (P63010 whole entry, looked up, stated change not applied) above

- Kd [5]: > 30 µM
Substance: AP2 core (recombinant; α trunk, β2 trunk, myc-tagged μ2, σ2) (from UniProt P63010;P84092;P62743) β2:K5E; β2:K12E; β2:K26E; β2:K27E; β2:K29E; β2:K36E

- Kd [3]: 0.5 µM
- relaxation time at 15 μM C-μ2 [3]: 0.0073 s
Substance: isolated C-terminal domain of μ2 (C-μ2) (from UniProt P84092 1-435) (domain or fragment)

- fold less binding than phosphorylated AP2 core [8]: 20 fold
- fold weaker binding than wild-type core [8]: 4 fold
Substance: μ2Thr156Glu AP2 core (from UniProt P63010 1-592; P84092 1-236; P84092 237-435; P62743 1-142) (complex)

- fold inhibition of binding to PtdIns4,5P2/YxxΦ liposomes against the wild-type core [9]: 20 fold
- fold reduction of binding to PtdIns4,5P2/[ED]xxxL[LI] liposomes against the wild-type core [10]: 3 fold
Substance: μ2^PIP-Core (AP2 core with the μ2 mutations 5K>E and KRR>E combined) (from UniProt P63010 1-592; P84092 1-236; P84092 237-435; P62743 1-142) (complex)

Second part, the substance before the results:

Substance: AP2 core (recombinant; α trunk, β2 trunk, myc-tagged μ2, σ2) (from UniProt P63010 1-592; P84092 1-236; P84092 237-435; P62743 1-142) (complex)
- Kd [1]: 3.4 µM
- Kd [2]: 3.5 µM
- koff [2]: 2 s⁻¹
- kon [2]: 1e+06 M⁻¹ s⁻¹
- relaxation time at 15 μM AP2 with heparin [2]: 0.059 s
- relaxation time with heparin [2]: 0.056 s
- Kd [3]: 4000 µM
- relaxation time at 30 μM AP2 without heparin [3]: 62.5 s

Substance: AP2 core (recombinant; α trunk, β2 trunk, myc-tagged μ2, σ2) (from UniProt P63010;P84092;P62743) αPIP- (substitutions in the PtdIns4,5P2-binding site of α; not printed)
- response ([4]; 200 nM AP2 core, PtdIns4,5P2/TGN38 liposomes, corrected for non-specific binding to PC/PE liposomes, baseline about 80 RU, parent: est. 1800, read off a plot): 330 RU
- Kd [4]: > 30 µM
- Kd [5]: > 30 µM
- response ([6]; 200 nM AP2 core, PtdIns4,5P2/CD4P liposomes, corrected for non-specific binding to PC/PE liposomes, baseline about 40 RU, parent: est. 1400, read off a plot): 180 RU

Substance: AP2 core (recombinant; α trunk, β2 trunk, myc-tagged μ2, σ2) (from UniProt P63010;P84092;P62743) μ2 5K>E (five lysines of the second basic region of C-μ2 to glutamate; residues not printed)
- Kd [4]: 0.52 µM
- Kd [7]: 11 µM
- Kd [6]: 0.95 µM

Substance: AP2 core (recombinant; α trunk, β2 trunk, myc-tagged μ2, σ2) (from UniProt P63010;P84092;P62743) μ2 KRR>E (three basic residues of the third basic region of C-μ2 to glutamate; residues not printed)
- Kd [4]: 0.33 µM
- Kd [7]: 7.5 µM
- Kd [6]: 0.85 µM

Substance: AP2 core (recombinant; α trunk, β2 trunk, myc-tagged μ2, σ2) (from UniProt P63010;P84092;P62743) μ2PIP- (μ2 5K>E and μ2 KRR>E combined; individual residues not printed)
- Kd [4]: 6.2 µM
- Kd [7]: 30 µM
- Kd [5]: 0.28 µM
- Kd [6]: 2.5 µM
